Data reported in the RNAGym collection of RNA variant scans (doi:10.1073/pnas.2313332121).
Fewer inactive variants are shown than the library holds.

B1: TPR 5TU (parent)
chain: GGAUCUUCUCGAUCUAACAAAAAAGACAAAUCUGCCACAAAGCUUGAGAGCAUCUUCGGAUGCAGAGGCGGCAGCCUUCGGUGGCGCGAUAGCGCCAACGUUCUCAACUAUGACACGCAAAACGCGUGCUCCGUUGAAUGGAGUUUAUCAUG

Variants of: B1
Test: polymerase ribozyme fitness, log enrichment relative to wild type (log ratio); higher = more active; in vitro selection for triplet polymerase activity
In short: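 Fitness compares each genotype's enrichment to that of the wild type on a logarithmic scale, averaging replicates with inverse-variance weights. The logarithm is base 2. Enrichment came from Illumina sequencing of input and output libraries after one triplicate round of in vitro selection, which included frozen incubation at −7 °C, of PCR-built, transcribed mutant libraries of each subunit of a heterodimeric triplet polymerase ribozyme. Only genotypes with ≥10 input reads and ≥1 read per output were kept.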

Polymerase ribozyme fitness (log ratio), -2.97:
A30G A150U

Polymerase ribozyme fitness (log ratio), -3.19:
A29U C96U

Polymerase ribozyme fitness (log ratio), -2.96:
A30U U55A

Polymerase ribozyme fitness (log ratio), -4.08:
A29G A52G

Polymerase ribozyme fitness (log ratio), -3.14:
A30G C95U

Polymerase ribozyme fitness (log ratio), -3.79:
A29U G50A G58C A60C G88A C116G U139A G141C G143C

Polymerase ribozyme fitness (log ratio), -4.03:
A30U C54U A73G C95A C116U

Polymerase ribozyme fitness (log ratio), -4.12:
A30C C93U A106U C131A A142C

Polymerase ribozyme fitness (log ratio), -3.5:
A30U U56A G62A G126A

Polymerase ribozyme fitness (log ratio), -3.89:
A30C U33C G67A C93G A119U

Polymerase ribozyme fitness (log ratio), -2.62:
A30U A122U

Polymerase ribozyme fitness (log ratio), ≤ -4.2:
A29G G34A A49U G59U C76U C108A A119G
A30U C54G C95A A98U A122C G141C U144C
A29G G70A A120U G143A A150C
A29U U61A A91C C96A G128C
A29G A30C G59C U90G C95G G133U
A30U A91U
A30C G50C A66G G128U
A30U G62U U90G C95A A107C C118A A142G
A29U A30U A37U A47G G50C A97U G100U A106C
A30C C43U A49C C85G C108G
A29U U45A G70A C85G
A30U U45G C93U C103G C118G
A29G A30U C85A A107U C118G
A29G G59U A60U C114U
A30U G84A C96U U144A
A30U C79U G83C
A30U C85U A97U G128A G140C C149U
A30C G48C G50U A98G A107G C118U A120C G141U
A29U G59C G88U C95G
A30U U77A G84U A91C G94C C99G G141C
A29U C35A A60G C85A G126A
A30G G50C C51A G84A C87G G100U A121G
A29U U109G C149G
A29U A142G C149U
A30G G86C A147C
A29U U53G G81A G88C
A30C U53A G84A
A29U U44C U45A C57A A64G C76A C95A A150C
A30G G48A C54U C85U
A30C G59A
A29G A52C C85A U90C C95G A97G C118A A138C G143U
A30C G67C G68A G88A C93A U135C G141C
A30G U33A U55A A91C C132U A142U
A30U C54A A97U C116U G117U
A30G G42U A113U C114U C125U
A30C C54U C96G G141A
A29U C32U A122G
A30U A47C G50A C54G G92C C123G
A30U C87G U101G U146A C149G
A29G C87A A110C G141U
A30U A52G U53A U146G
A30G A40G C54A C85U G117C
A30U C69U G83A
A30U U61A G70C C96A U111G G140A
A30U U56G G84A C96U A113C C125U U134A A142U
A30C C57U G59C U82A G117A A138C
A29G G86U G143A
A30U G58C C76A G94C U104G G136A
A30G C54G G68A C95G A121C
A29U G70U
A29G G58C A60C G71A C129G
A30G U45A U78C G80C A89C G94U
A29U U134A
A30C C79G C85U A106U
A29U A49G C54G G59U A91U C96A G117U A142U
A29U U53A U56A A64U U77C A98G C103G U148C
A30C C72G G86U A106G U144C C149G
A29G A37U G94C G141U
A30G C32G U56A C57G G86U A142G
A29U U111C C114G G140U
A30G A91U A137G G141U
A30C G65A G67C G100A A119U
A30G G48U C76G C96U A97C U134G
A30G C35U U56G A66G U82G C99U A119U G126A A142C
A30G G42U A52C C57A C96A A120G
A29U A30C A49G C57U C87A G100A G141A
A30C A37C A49C A52C C57G G83A A115U G143C
A30U U33C A138G
A29U C96U A106C U127G
A29U G48U U61G G83C

Polymerase ribozyme fitness (log ratio), -3.87:
A30U C54U C85U

Polymerase ribozyme fitness (log ratio), -3.82:
A30U C76A

Polymerase ribozyme fitness (log ratio), -3.95:
A30G C93A
